Assay results as given in US20180112194A1, “MUTANT HUMAN DEOXYCYTIDINE KINASE” (Centre National De La Recherche Scientifique, priority 2015, published 2018).
Read-outs that look alike come from different tables or passages of the source.

Experiments:
Messa10K cells [1] = conditions: cited from earlier work
Messa10K cells [2] = conditions: for efficiency of SIN vectors versus wt vectors / plateau of maximum mortality: gemcitabine; for efficiency of SIN vectors versus wt vectors: Messa 10K, data not shown
Method: Methods to measure sensitivity of a cell, such as a eukaryotic cell are known to the skilled in the art. In one example, cells were transduced with a vector comprising for example the mutant “M36” or the wild-type hdCK. Therefore, 1×10^6 cells were contacted with 1 ml of 1:5 diluted viral vectors rescued from the isolated clones. Transduced cells were selected, for example, by adding puromycin 24 h after transduction using 0.6 μg/ml to HEK-293T cells, 0.6 μg/ml to HEK-293T-CD4^+ cells, 0.5 μg/ml to Messa10K cells. The transduced cells were then for example seeded at 5,000 cells per well in a 96-well plate and grown overnight at 37° C. Typically, two rows were used for each population. 12 h after seeding, increasing concentrations of for example gemcitabine (0-400 nM or […]), or araC (0-10 mM) were added to each well and left in culture for further 72 h. Cell viability was measured by MTT test (CellTiter 96 Non-Radioactive Cell Proliferation Assay, Promega) and the number of living cells in each well was evaluated by measuring the OD at 570 nm. For each population, the fraction of living cells was calculated as OD570 concentration X Gem/OD570 concentration 0 Gem, to estimate the sensitivity of the population to the prodrug.
Tests of sensitivity to anticancer drugs. Cells were seeded at 5000 cells per well in a 96-well plate and grown overnight at 37° C. Two rows were used for each population. 12 h after seeding, increasing concentrations of Gemcitabine (0-400 nM or 0-100 μM), or AraC (0-10 mM) were added to each well and left in culture for further 72 h. Cell viability was measured by MTT test (CellTiter 96 Non-Radioactive Cell Proliferation Assay, Promega) and the number of living cells in each well was evaluated by measuring the OD at 570 nm. For each population, the fraction of alive cells was calculated as OD570 concentration X Gem/OD570 concentration 0 Gem, to estimate the sensitivity of the population to the prodrug. Tests of sensitivity to antiviral drugs. Viral vectors were generated by transfection of HEK-293T cells with 10 μg of pCMVAR8.91 plasmid, 5 μg of pHCMV-G plasmid, and 10 μg of genomic plasmid SDY-dCK (described in Rossolillo et al. 2012) encoding either for the wild type sequence of the human dCK or the M36 variant. Transduction was performed on 1×10^6 HEK-293T-CD4+ cells with viral vectors. Transduced cells were selected in the presence of 0.6 μg/ml of puromycin, added 24 h after transduction. 50 to 200 individual puromycin-resistant clones were pooled and expanded obtaining the polyclonal wt-dCK cell population (wtdCK-pcP, for wt dCK polyclonal population) and the […] cell population (M36-pcP). Vectors for challenging infection in the presence of antiviral drugs were generated by transfection with 10 μg of pTopo plasmid encoding for the HIV envelope ADA (ref, plus Hamoudi 2013), 5 μg of pHCMV-G plasmid, and 10 μg of genomic plasmid SDY-Luc, which is a variant of the pSDY plasmid encoding for the firefly luciferase. These viruses were used to transduce 1×10^6 HEK-293T-CD4+-wtdCK or HEK-293T-CD4+-M36 cells. Viral infection was then monitored 48 hours after transduction. For this the medium was removed, the cells were washed twice in PBS, lysed, centrifuged, and the supernatant was used to measure luciferase activity according to the manufacturer's protocol (Promega, Fitchburg, Wis., USA) with a Glomax luminometer (Promega, Fitchburg, Wis., USA). Western blot analyses. Messa10K cell lines expressing either the wt dCK or M36, both in the context of a proviral DNA with functional LTR or with an inactivated LTR were lysed in 1×RIPA buffer, and 30, 60, 120 μg of total protein (evaluated by Bradford) for each cell type and loaded on a 12% bis-tricine gel (Invitrogen).

human dCK [3] = molecular target: T1, human dCK (Homo sapiens, UniProt P27707, E171K/E247K/L249M); conditions: cited from earlier work
T1 construct: His tag (C, cleaved yes); made in house; host or cells: E. coli BL21 DE3 pLysE (pET14b)

[4] = system: HIV-derived vectors in HEK 293T/CD4+ cells; assay: Tests of sensitivity to antiviral drugs: infection of hdCK-transduced cells by luciferase-encoding HIV-derived vectors; type: cell-based; conditions: luciferase 48 hours after infection
Method: (§1) Tests of sensitivity to anticancer drugs. […] Two rows were used for each population. […] Tests of sensitivity to antiviral drugs. […] Viral infection was then monitored 48 hours after transduction. […] Western blot analyses. […] Production and purification of recombinant dCK proteins. […] Phosphorylation tests in vitro. […] ATP was 4 mM. All experiments were performed in triplicate.
Firstly HEK 293T/CD4^+ cells were transduced at a low MOI of by the vector encoding the M36 variant and selection of the successfully transduced cells was performed using puromycin. The selected cell line was then transduced with lentiviral vectors, as described in Materials and Methods, encoding the luciferase gene and luciferase levels ere measured 48 hours after infection. A comparison with the level of luciferase detected in the parallel infection of control HEK 293T/CD4^+ cells expressing as a transgene the wt dCK gene was performed and the data plotted.

human dCK [5] = molecular target: T2, human dCK (Homo sapiens, UniProt P27707, E171K/E247K/L249M/S169N); assay: Phosphorylation tests in vitro (NADH-based assay) with purified recombinant dCK proteins; type: biochemical; conditions: for Km compared to wt dCK / Kcat relative to wt dCK: FIG. 9A
T2 construct: His tag (C, cleaved yes); made in house; host or cells: E. coli BL21 DE3 pLysE (pET14b)
Method: (§2) Methods to qualitatively and/or quantitatively evaluate phosphorylation of a compound, such as a nucleoside compound, are known to the skilled in the art. In one example, the efficiency of phosphorylation of a substrate such as the natural substrate deoxycytidine, or the prodrugs gemcitabine and AraC, is measured for example with the purified wild-type hdCK and the mutant “M36” in typically a NADH-based assay as described in (Agarwal K C. et al. 1978 Methods Enzymol 51: 483-490). Accordingly, the enzymes are typically assayed at, for example, room temperature at a concentration of 0.45 μM for dC, 0.3 μM for Gemcitabine, and 0.3 for AraC. dC is typically used at concentrations of 5 to 50 μM, Gemcitabine at concentrations of 20 μM to 1 mM, and araC is typically used at concentrations of 20μM to 0.5 mM. ATP is used typically at 4 mM.
as §1
(§3) To characterise its biochemical properties M36 and, as a control, the wt dCK protein, were produced as recombinant, C-ter His tagged proteins in E. coli, purified and tested for their efficiency of phosphorylation in vitro. As it was the case for the G12 mutant (Rossolillo et al. 2012) also for M36 the substitutions present in the mutant led to a decrease in the Vmax of phosphorylation as function of the concentration of substrate, for both dC and for gemcitabine, but while the decrease is dramatic for the dC it is only modest for gemcitabine (FIGS. 8A-B).

human dCK [6] = assay: as above; type: biochemical; conditions: FIG. 9B, G12 values from Rossolillo et al. 2012
Method: as §2, §1, §3

T2 sequence (P27707 whole entry S169N/E171K/E247K/L249M): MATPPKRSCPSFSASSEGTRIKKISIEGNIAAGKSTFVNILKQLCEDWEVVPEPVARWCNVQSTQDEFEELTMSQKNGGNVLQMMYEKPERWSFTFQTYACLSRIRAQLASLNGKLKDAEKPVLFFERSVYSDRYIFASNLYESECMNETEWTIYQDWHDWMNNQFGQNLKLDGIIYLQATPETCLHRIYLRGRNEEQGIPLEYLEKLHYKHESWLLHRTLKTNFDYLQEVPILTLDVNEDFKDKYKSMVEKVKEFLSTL
T1 sequence (P27707 whole entry E171K/E247K/L249M): as the sequence (P27707 whole entry S169N/E171K/E247K/L249M) above, with N169S counted along it

G12: hdCK mutant comprising three mutations, Glu171Lys, Glu247Lys and Leu249Met, described in Rossolillo et al. 2012 and WO2011/058081
sensitization to gemcitabine (Messa10K cells [1]; cells originally resistant to gemcitabine (Messa10K)): 300 fold
sensitization effect relative to the one induced with the wild-type enzyme (Messa10K cells [1]; gemcitabine, Messa10K): 60 times
efficiency of SIN vectors versus wt vectors (Messa10K cells [2]): more efficient
ability to phosphorylate dC with respect to the wild type enzyme (human dCK [3]; substrate dC): almost complete loss of ability
efficiency of phosphorylation of gemcitabine with respect to the wild type enzyme (human dCK [3]; substrate gemcitabine): almost unaltered

M36: mutant human deoxycytidine kinase (hdCK) with mutations S169N, E171K, E247K and L249M; delivered as lentiviral transgene or recombinant protein
lower infectivity versus cells expressing wt dCK ([4]; 3TC, FIG. 6): ~2 fold
resistance to infection versus cells expressing wt dCK ([4]; ddC, FIG. 5): no significant increase in resistance
Km compared to wt dCK (human dCK [5]; natural substrate dC): reversed
reduction of the Vmax of phosphorylation compared to wt dCK (human dCK [5]; substrate AraC, FIG. 8C): very modest reduction
Kcat relative to wt dCK (human dCK [5]; substrate AraC): approximately 50%
Km compared to wt dCK (human dCK [5]; substrate AraC): increased
decrease in the Vmax of phosphorylation compared to wt dCK (human dCK [5]; substrate dC, FIG. 8A): dramatic
Kcat relative to wt dCK (human dCK [5]; substrate dC): approximately 50%
decrease in the Vmax of phosphorylation compared to wt dCK (human dCK [5]; substrate gemcitabine, FIG. 8B): only modest
Kcat relative to wt dCK (human dCK [5]; substrate gemcitabine): approximately 50%
Km compared to wt dCK (human dCK [5]; substrate gemcitabine): increased
increase in Kcat M36 vs G12, factor (human dCK [6]; natural substrate dC): 9.5
increase in Km M36 vs G12, factor (human dCK [6]; natural substrate dC): 3.5
ratio of Kcat M36 vs G12 (human dCK [6]; substrate gemcitabine): 1
ratio of Km M36 vs G12 (human dCK [6]; substrate gemcitabine): 1
sensitisation to AraC with respect to control cells expressing exogenous wt dCK (Messa10K cells [2]; AraC, FIG. 7B): strong sensitisation
sensitisation phenotype to gemcitabine compared to G12 (Messa10K cells [2]; Messa10K, FIG. 1 and 2): further improved sensitisation phenotype
sensitization to gemcitabine (Messa10K cells [2]; cells originally resistant to gemcitabine): 900 fold
sensitization of cells to cytarabine (AraC), factor (Messa10K cells [2]; cytarabine (AraC)): 10,000
sensitisation of Messa 10K cells to fludarabine (Messa10K cells [2]; fludarabine, FIG. 7A): no significant sensitisation
efficiency of SIN vectors versus wt vectors (Messa10K cells [2]): more efficient
plateau of maximum mortality (Messa10K cells [2]; SIN vector (inactivated LTR)): 80%
plateau of maximum mortality (Messa10K cells [2]; wt LTR vector): 60%
